We go through one molecule from PMC6642096 (Nature Communications, 2019).

In this assay the target is T1, LgB-NIX (UniProt O60238 1-219).
T1 construct: also called NIX (NanoBiT Large BiT fusion); not shown: Large BiT (LgB), N-terminal, kept
Kind of assay: split reporter (BiFC, NanoBiT). The note with it: partners not purified.

T1 sequence (O60238 whole entry, the tested form may be a part): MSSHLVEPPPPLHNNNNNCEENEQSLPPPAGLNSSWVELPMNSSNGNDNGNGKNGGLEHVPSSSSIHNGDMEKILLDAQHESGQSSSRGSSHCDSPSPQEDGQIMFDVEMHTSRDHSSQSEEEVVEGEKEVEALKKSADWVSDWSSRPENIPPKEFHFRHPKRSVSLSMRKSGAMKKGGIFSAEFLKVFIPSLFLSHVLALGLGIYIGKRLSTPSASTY

B1: vIRF-1-SmB (natural protein)
chain: MDPGQRPNPFGAPGAIPKKPCLSQGSPGTSGSGAPCDEPSRSESPGEGPSGTGGSAAAGDITRQAVVAAITEWSRTRQLRISTGASEGKASIKDWIVCQVNSGKFPGVEWEDEERTRFRIPVTPLADPCFEWRRDGELGVVYIRERGNMPVDASFKGTRGRRRMLAALRRTRGLQEIGKGISQDGHHFLVFRVRKPEEEQCVECGVVAGAVHDFNNMARLLQEGFFSPGQCLPGEIVTPVPSCTTAEGQEAVIDWGRLFIRMYYNGEQVHELLTTSQSGCRISSALRRDPAVHYCAVGSPGQVWLPNVPNLACEIAKRELCDTLDACAKGILLTSSCNGIFCVCYHNGPVHFIGNTVPPDSGPLLLPQGKPTRIFNPNTFLVGLANSPLPAPSHVTCPLVKLWLGKPVAVGKLEPHAPSPRDFAARCSNFSDACVVLEIMPKPLWDAMQ
notes: also called vIRF-1-SmB (NanoBiT Small BiT fusion); source: 293T, transiently transfected, in cells; not shown: Small BiT (SmB), C-terminal, kept
In the case of B1, the “fold luminescence against HT-SmB with LgB-NIX” value is 10 fold.
